Each block holds one binder with its values, some of them ahead of it.
Key:
Conditions in all cases: partners not purified
HA-Halo-MRAP2 = molecular target: T1, HA-Halo-MRAP2 (human, UniProt Q96G30 1-205, CA-Sulfo646 dye on the Halo tag); experiment: single-molecule pull-down (SiMPull) with photobleaching step counting; two-color: HA-Halo protein (CA-Sulfo646) and FLAG-CLIP protein (BC-DY547) co-expressed in HEK293 (300 ng Halo and 600 ng CLIP plasmid), lysed in 0.5% LMNG/0.05% CHS, captured by biotinylated anti-HA antibody, co-localized spots analysed by TIRF; also reanalysed for monomeric against oligomeric GPCR
T1 construct: melanocortin receptor-2 accessory protein-2 (MRAP2), human; N-terminal signal peptide from rat mGluR2 in the construct; also called melanocortin receptor-2 accessory protein-2; source: HEK293, transfected, in lysate (LMNG-CHS); not shown: HA, N-terminal, kept; Halo, N-terminal, kept
T1 sequence (looked up): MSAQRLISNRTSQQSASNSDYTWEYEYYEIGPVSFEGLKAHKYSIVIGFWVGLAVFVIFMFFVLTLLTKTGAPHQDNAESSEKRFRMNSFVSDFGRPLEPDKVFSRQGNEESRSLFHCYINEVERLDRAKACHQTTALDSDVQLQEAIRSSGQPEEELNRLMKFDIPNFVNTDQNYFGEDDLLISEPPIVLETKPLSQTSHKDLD

HA-Halo-MC4R = molecular target: T2, HA-Halo-MC4R (human, UniProt P32245 1-332, CA-Sulfo646 dye on the Halo tag); experiment: as above
T2 construct: melanocortin receptor-4 (MC4R), human; N-terminal signal peptide from rat mGluR2 in the construct; also called melanocortin receptor 4; source: HEK293, transfected, in lysate (LMNG-CHS); not shown: HA, N-terminal, kept; Halo, N-terminal, kept

HA-Halo-GHSR = molecular target: T3, HA-Halo-GHSR (human, UniProt Q92847 1-366, CA-Sulfo646 dye on the Halo tag); experiment: as above
T3 construct: growth hormone secretagogue receptor-1a (GHSR), human; N-terminal signal peptide from rat mGluR2 precedes the HA tag in the construct (pRK5 vector); also called ss-HA-Halo-GHSR; growth hormone secretagogue receptor-1a; source: HEK293, transfected, in lysate (LMNG-CHS); not shown: HA, N-terminal, kept; Halo, N-terminal, kept

GHSR-LgC = molecular target: T4, GHSR-LgC (UniProt Q92847 1-366); experiment: split reporter (BiFC, NanoBiT); HEK293 cells transfected with 100 ng GHSR-LgC and MRAP2-SmC, 48 h, Nano-Glo substrate, 37°C; normalised to cells with LgC-empty and SmC-empty
T4 construct: GHSR cloned into the LgBiT-C plasmid (Promega); also called GHSR with LgBiT at the C-terminus; source: HEK293, transfected, in cells; not shown: LgBiT, C-terminal, kept

T2 sequence (P32245 whole entry): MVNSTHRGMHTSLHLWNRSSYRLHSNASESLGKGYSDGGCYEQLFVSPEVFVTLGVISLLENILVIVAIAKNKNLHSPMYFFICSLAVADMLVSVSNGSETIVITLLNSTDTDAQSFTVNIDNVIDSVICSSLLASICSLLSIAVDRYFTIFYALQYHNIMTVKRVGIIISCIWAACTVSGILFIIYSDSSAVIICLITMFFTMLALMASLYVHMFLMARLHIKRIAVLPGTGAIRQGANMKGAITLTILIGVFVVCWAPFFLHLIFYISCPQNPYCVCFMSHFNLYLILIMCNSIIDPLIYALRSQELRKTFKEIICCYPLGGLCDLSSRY

percent of co-localized spots with 2-step bleaching for MRAP2 (HA-Halo-MRAP2): 22%
stoichiometry N (HA-Halo-MRAP2): 1 MRAP2 per GHSR
B1: FLAG-CLIP-GHSR (receptor, human, UniProt Q92847 1-366, looked up)
chain: MWNATPSEEPGFNLTLADLDWDASPGNDSLGDELLQLFPAPLLAGVTATCVALFVVGIAGNLLTMLVVSRFRELRTTTNLYLSSMAFSDLLIFLCMPLDLVRLWQYRPWNFGDLLCKLFQFVSESCTYATVLTITALSVERYFAICFPLRAKVVVTKGRVKLVIFVIWAVAFCSAGPIFVLVGVEHENGTDPWDTNECRPTEFAVRSGLLTVMVWVSSIFFFLPVFCLTVLYSLIGRKLWRRRRGDAVVGASLRDQNHKQTVKMLAVVVFAFILCWLPFHVGRYLFSKSFEPGSLEIAQISQYCNLVSFVLFYLSAAINPILYNIMSKKYRVAVFRLLGFEPFSQRKLSTLKDESSRAWTESSINT
modifications: BC-DY547 dye on the CLIP tag
notes: growth hormone secretagogue receptor-1a (GHSR), human; N-terminal signal peptide from rat mGluR2 precedes the FLAG tag in the construct (pRK5 vector); also called ss-FLAG-CLIP-GHSR; source: HEK293, transfected, in lysate (LMNG-CHS); not shown: CLIP, N-terminal, kept

percent of co-localized spots with 2-step bleaching for MRAP2 (HA-Halo-MC4R): 29%
stoichiometry N (HA-Halo-MC4R): 1 MRAP2 per MC4R
percent of co-localized spots with 2-step bleaching for MRAP2 (HA-Halo-GHSR): 27%
stoichiometry N (HA-Halo-GHSR): 1 MRAP2 per GHSR
B2: FLAG-CLIP-MRAP2 (natural protein, human, UniProt Q96G30 1-205, looked up)
chain: T1 sequence (looked up)
modifications: BC-DY547 dye on the CLIP tag
notes: melanocortin receptor-2 accessory protein-2 (MRAP2), human; N-terminal signal peptide from rat mGluR2 in the construct; source: HEK293, transfected, in lysate (LMNG-CHS); not shown: CLIP, N-terminal, kept

fold luminescence over negative controls (GHSR-LgC): 400 fold
B3: MRAP2-SmC (natural protein, UniProt Q96G30 1-205, looked up)
chain: T1 sequence (looked up)
notes: MRAP2; printed as MRAP2-SmC in the results and SmC-MRAP2 in the methods; also called SmC-MRAP2; source: HEK293, transfected, in cells

— doi:10.1101/2025.09.26.678709, “MRAP2 potentiates GPCR signaling by conserved mechanisms that are disrupted by obesity-associated genetic variants” (bioRxiv, 2025)
